In patent US20230414752A1:

Molecular target: human EpCAM (human) (UniProt P16422)
Test: binding affinity, method not stated

Sequence of UniProt P16422 (P16422 24-265 limits assumed): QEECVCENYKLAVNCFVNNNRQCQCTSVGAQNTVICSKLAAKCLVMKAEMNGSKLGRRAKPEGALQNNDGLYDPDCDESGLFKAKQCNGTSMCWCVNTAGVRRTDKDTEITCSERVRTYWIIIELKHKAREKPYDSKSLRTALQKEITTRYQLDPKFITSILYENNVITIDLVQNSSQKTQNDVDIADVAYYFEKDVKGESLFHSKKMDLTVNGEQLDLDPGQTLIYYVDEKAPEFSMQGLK

Kd: 2.8 nM
B1: hVIB-13 (VHH)
VHH: QVQLVESGGGLVQPGGSLTLSCAASGTGSIFSINLMGWYRQAPGKQRELVARITSGDSTVYADSVKGRFTISRDNSKNTLYLQMNSLRPEDTAVYYCNLLLRSSPGATTPYWGQGTLVTVSS
